Assays:
hPPARγ3 promoter = assay: pGL3γ3p800 luciferase reporter cotransfection in Hep G2 cells; format: cell-based, human; conditions: E-box mutated
Text: (§1) To assess whether ADD-1 regulates the expression of the hPPARγ3 mRNA, we cotransfected either an expression plasmid coding for ADD-1 together with the pGL3γ3p800 luciferase reporter vector. When Hep G2 cells were cotransfected with the ADD-1 expression vector, the luciferase activity was increased at least 4-fold relative to the basal activity of the hPPARγ3 promoter.
A 800 bp fragment of the PAC clone 8856 was isolated by PCR using the amplimers LF-60 (binding to the antisense strand in exon A2) and LF-68 (binding sense at position −800 of the PPARγ3 promoter). This PCR fragment was sequenced, inserted into the EcoRV site of pBluescript SK+ (Stratagene, La Jolla, USA), and after SpeI and KpnI restriction subcloned into pGL3 (Promega, Madison, USA), creating the reporter vector pGL3γ3p800.
(§2) Site-directed mutagenesis of the E-box in the PPARγ3 promoter was performed by splicing overlapping ends polymerase chain reaction (Ho, et al., Gene 77:51–59 (1989)), using the oligo pairs LF-106/LF-60 and LF-107/LF-68, to generate the plasmid pGL3γ3p800-E-boxmut. […]

human PPARγ1 promoter = assay: pGL3γ1p3000 luciferase reporter cotransfection; format: cell-based; conditions: expression vector cotransfected
Text: as §1
To isolate the PPARγ1 promoter, an 8-kb EcoRI fragment, which hybridized with the oligonucleotide LF-2 (corresponding to the 5′-UTR of γ1), was cloned into pBluescript. […] To test for promoter activity, a SacI/XhoI digestion of this clone containing the 3-kb promoter was inserted in the same sites of pGL3, resulting in the final vector pGL3 γ1p3000. The pSG5-haPPARγ (39) and pMSV-C/EBPβ (10) expression vectors were described elsewhere. Transfections were carried out in 60-mm plates using standard calcium phosphate precipitation techniques (for 3T3-L1, CV-1, and COS cells) (22). Luciferase and […] assays were carried out exactly as described previously (22).
as §2

human PPARγ2 promoter = assay: pGL3γ2p1000 luciferase reporter cotransfection; format: cell-based; conditions: expression vector cotransfected
Text: as §1
A 1-kb fragment of PAC clone 8856 was isolated by PCR using the oligonucleotides LF-35 (binding antisense in the PPARγ2 5′-UTR) and the oligonucleotide LF-58 (binding sense at position −1000 of the PPARγ2), was sequenced, and was inserted into EcoRV site of pBluescript (Stratagene, La Jolla, Calif.). After digestion of plasmid pBS γ2p1000 with SmaI and KpnI, the insert was cloned into the reporter vector pGL3 (Promega), creating the expression vector pGL3γ2p1000.
as §2

PPARγ mRNA [1] = assay: RNase protection assay of endogenous PPARγ mRNA in electroporated Hep G2 cells; format: cell-based, human; conditions: Hep G2 cells electroporated with expression vector; 48 hr after transfection
Text: To investigate whether ADD-1/SREBP-1 expression was sufficient to regulate the expression of the endogeneous PPARγ3 mRNA, Hep G2 cells were electroporated with vectors expressing either SREBP-1a (Yokoyama et al., Cell 75:187–197 (1993)) or ADD-1 (Tontonoz et al., Mol. Cell. Biol. 13:4753–4759 (1993)). RNA was extracted 48 hr after transfection and analysed by RNase protection assay for the presence of PPARγ mRNA.
The absolute mRNA concentration of the differentially spliced PPARγ variants was measured by RNase protection assay exactly as described (Lemberger et al., J. Biol. Chem. 271:1764–1769 (1995)). The full lenght PPARγ2 coding region plus 33 bp of the 5′ UTR was amplified from human adipose tissue RNA by RT-PCR with the primer pair LF-3/LF-36 and was inserted in the inverted orientation (3′ to 5′ in front of the T7 promoter) into the EcoRI site of the expression vector pSG5 (Stratagene, La Jolla, Calif.). The resulting plasmid pSG5-hPPARγ2-inv was digested with EcoRV and religated, yielding the vector pSG5-hPPARγ2-RPA, which was used as a template for the synthesis of the anti-sense RNA probe, to measure the relative amounts of PPARγ2 relative to PPARγ1 and 3 mRNA. […]

PPARγ mRNA [2] = assay: RNase protection assay of PPARγ mRNA in retrovirally infected 3T3-L1 cells; format: cell-based, mouse; conditions: 3T3-L1 preadipocytes and adipocytes; retroviral ectopic expression
Protocol: To study the effects of ADD-1 on PPARγ expression in more detail, either an empty retroviral vector pBabe or the same vector encoding for full length ADD-1 or the superactive ADD-1-403 form were introduced into 3T3-L1 cells via retroviral infection. […] Infected cells were then cultured to confluence and consecutively treated with differentiation medium. Total RNA was isolated at confluence (preadipocytes) and at day 6 after confluence (adipocytes) from the cells expressing either the empty pBabe vector or the same vector encoding for ADD-1 or ADD-1-403, a truncated form of ADD-1, equivalent to the proteolytically activated protein, which lacks the membrane anchoring domain. […] The effect of retroviral infection was more pronounced in 3T3-L1 adipocytes relative to preadipocytes.
Control cells received vehicle only.
The absolute mRNA concentration of the differentially spliced PPARγ variants was measured by RNase protection assay exactly as described (Lemberger et al., J. Biol. Chem. 271:1764–1769 (1995)). The full lenght PPARγ2 coding region plus 33 bp of the 5′ UTR was amplified from human adipose tissue RNA by RT-PCR with the primer pair LF-3/LF-36 and was inserted in the inverted orientation (3′ to 5′ in front of the T7 promoter) into the EcoRI site of the expression vector pSG5 (Stratagene, La Jolla, Calif.). […]

B1: ADD-1: basic helix-loop-helix leucine zipper transcription factor, expressed from a cotransfected, electroporated or retroviral vector (protein, UniProt P56720 1-1134, looked up)
Sterol regulatory …: MDELPFGEAALEQALAEVCEMDAALLTDIEDMLQLINNQDSDFPGLFDAPYAGGETGDTGPSSPGASSPESFSSPASLGSSLEAFLGGPKVTPAPLSPPPSAPTAVKMYPSVPPFSPGPGIKEEPVPLTILQPPAPQPSPGTLLPPSFPPPPVQLSPAPVLGYSSLPSGFSGTLPGNTQQTPSSLPLGSTPGISPTPLHTQVQSSAAQQPPPASAAPRMSTVASQIQQVPVVLQPHFIKADSLLLTAVKTDTGATMKTAGINTLAPGTAVQAGPLQTLVSGGTILATVPLVVDTDKLPIHRLAAGGKALGSAQSRGEKRTAHNAIEKRYRSSINDKIVELKDLVVGTEAKLNKSAVLRKAIDYIRFLQHSNQKLKQENLTLRSAHKSKSLKDLVSACGSGGGTDVSMEGMKPEVVETLTPPPSDAGSPSQSSPLSLGSRGSSSGGSDSEPDSPAFEDNQVKAQRLPSHSRGMLDRSRLALCVLVFLCLTCNPLASLFGWGILTPSDASGVHRSSGRSMLEAESRDGSNWTQWLLPPLVWLANGLLVLACLALLFVYGEPVTRPHSGPAVHFWRHRKQADLDLARGDFAQAAQQLWLALQALGRPLPTSNLDLACSLLWNLVRHLLQRLWVGRWLAGQAGGLQRDYRLRKDARASARDAAVVYHKLHQLHAMGKYTGGHLVASNLALSALNLAECAGDAISMATLAEIYVAAALRVKTSLPRALHFLTRFFLSSARQACLAQSGAVPLAMQWLCHPVGHRFFVDGDWAVHGAPQESLYSVAGNPVDPLAQVTRLFCEHLLERALNCIAQPSPGAADGDREFSDALGYLQLLNSCSDAVGAPACSFSVSSSMATTTGTDPVAKWWASLTAVVIHWLRRDEEAAERLYPLVEHIPQVLQETERPLPRAALYSFKAARALLDHRKVESSPASLAICEKASGYLRDSLASTSTASSIDKAMQLLLCDLLLVARTSLWRRQQSAASAQGAHGTSNGPQASALELRGFQHDLSSLRRLAQSFRPAMRRVFLHEATARLMAGASPARTHQLLDRSLRRRAGSSGKGGAAAELEPRPTWREHTEALLLASCYLPPAFLSAPGQRVSMLAEAARTVEKLGDHRLLLDCQQMLLRLGGGTTVTSS
Which “stimulation of mutated pGL3γ3p800-E-boxmut reporter vector” value (hPPARγ3 promoter) does the source give for B1 here?
Its value is “unable to stimulate”.

And the “activity of pGL3γ1p3000 reporter construct” value (human PPARγ1 promoter)?
The value was “unaffected”.

And the “activity of pGL3γ2p1000 reporter construct” value (human PPARγ2 promoter)?
The value was “unaffected”.

And the “PPARγ1 mRNA increase” value (PPARγ mRNA [1])?
The value was “approximately 3 fold”.

What about the “expression of PPARγ mRNA” value (PPARγ mRNA [2]) of the same molecule?
Its value is “induced”.
